This is an account of results in patent publication US20220064284A1 (Janssen / Centocor, published 2022).

One experiment has as its target T1, GP5B305.
T1 construct: Used as the analyte in the ProteOn assay ('Antigens (scFV Fc Fusions)'); not shown: Hinge/Fc of HC2; all of HC1 (CD3B376 Fab heavy chain with C-terminal BCMB516-LH-scFv); CD3B376 light chain
Put plainly: SPR (ProteOn XPR36), mAb captured on anti-mouse Fc, antigen 50 nM to 0.2 nM in solution. As for the experimental part:
ProteOn XPR36 system (BioRad) was used to perform binding assays. ProteOn GLC chips (BioRad, Cat #176-5011) were coated with Anti-Mouse Fc antibody. Library Antibodies (Mouse IgG2a) diluted to 0.25 ug/ml to 1 ug/ml to reach approximately 100-200RL. Antigens (scFV Fc Fusions) are associated at 50 nM to 0.2 nM, 1:4 dilutions for 3 minutes. Dissociation for 30 mins. The results of the assay (Table 1 below) show picomolar affinity of GP5B318 with GP5B305. GP5B305 is a bi-specific antibody that includes HCl N-Terminal CD3B376-Fab/C-Terminal BCMB516-LH-scFv* and HC2 N-Terminal GP5B83 N23T, N30S-LH-scFv*.

Experiment [1] has as its target T2, GPRC5D CAR GP5DB83-HL expressed on SupT1 cells.
T2 construct: Chimeric antigen receptor with the GP5B83 scFv in VH-VL order; also called GP5DB83-HL CAR; CAR 1 (GP5B83-HL)
Put plainly: flow cytometry on GPRC5D CAR (GP5DB83-HL) SupT1 cells, unconjugated GP5B318 detected with PE-goat anti-mouse IgG, PE MFI. The method, then: SupT1 cells expressing GP5DB83-HL were compared to parental CAR-SupT1 cells. SupT1 cells expressing GP5DB83-HL and parental CAR-SupT1 cells were stained with near IR LIVE/DEAD fluorescent reactive dye on ice for 20 mins. After incubation, the cells were washed and resuspended in BSA stain buffer Cells (100,000 cells/well) were plated in a 96 well plate and incubated with increasing concentrations of GP5B318 for 30 minutes on ice with and without 10 μg/mL CAR-Fc Fusion protein, GP5B83_N24T_N315-HL-hu Fc-scFv (GP5B30.002). Following incubation, the samples were washed with BSA stain buffer and stained with PE-goat anti-mouse IgG polyclonal to detect bound antibody on live SupT1 cells. After incubation, washing, and fixation, the samples were acquired on a 10 color FACSCanto II flow cytometer. Analysis was done using FlowJo and the PE median fluorescent intensity of live SupT1 cells is plotted in FIG. 3. […] No binding was detected on CAR-SupT1 parental cells.

For experiment [2], the target named is T2, GPRC5D CAR GP5DB83-HL expressed on …. Briefly: flow cytometry on GPRC5D CAR (GP5DB83-HL) SupT1 cells, directly PE-conjugated GP5B318, PE MFI. As for the experimental part:
GP5B318 was conjugated to R-PE as described above and tested for binding to GP5DB83-HL SupT1 in the presence or absence of 10 μg/mL GP5DB83-scFv Fc fusion protein to assess the specificity of GP5B318 binding to GP5DB83-HL CAR and ensure CAR detection was not affected by PE labeling. GP5DB83-HL SupT1 cells were stained with near IR LIVE/DEAD fluorescent reactive dye in 50 mL tube on ice for 20 mins. After incubation, the cells were washed and resuspended in BSA stain buffer to 2×10⁶ cells/mL. 100,000 cells/well were seeded in 96 well plate and incubated with increasing concentrations of PE-GP5B318 and 10 μg/mL GP5DB83-scFv Fc for 45 minutes on ice. After incubation, washing, and fixation, the samples were acquired on a 10 color FACSCanto II flow cytometer. Analysis was performed using FlowJo analysis software and the PE median fluorescent intensity of live SupT1 cells is plotted in FIG. 4.

T1 sequence (scFv, as listed by the source limits assumed): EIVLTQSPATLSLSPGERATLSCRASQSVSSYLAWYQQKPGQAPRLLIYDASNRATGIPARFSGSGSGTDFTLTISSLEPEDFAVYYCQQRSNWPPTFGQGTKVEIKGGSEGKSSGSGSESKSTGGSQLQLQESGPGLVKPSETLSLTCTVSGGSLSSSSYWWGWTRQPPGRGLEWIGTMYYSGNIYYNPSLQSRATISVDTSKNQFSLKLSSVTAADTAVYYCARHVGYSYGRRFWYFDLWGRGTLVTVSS
T2 sequence (chain, as listed by the source limits assumed): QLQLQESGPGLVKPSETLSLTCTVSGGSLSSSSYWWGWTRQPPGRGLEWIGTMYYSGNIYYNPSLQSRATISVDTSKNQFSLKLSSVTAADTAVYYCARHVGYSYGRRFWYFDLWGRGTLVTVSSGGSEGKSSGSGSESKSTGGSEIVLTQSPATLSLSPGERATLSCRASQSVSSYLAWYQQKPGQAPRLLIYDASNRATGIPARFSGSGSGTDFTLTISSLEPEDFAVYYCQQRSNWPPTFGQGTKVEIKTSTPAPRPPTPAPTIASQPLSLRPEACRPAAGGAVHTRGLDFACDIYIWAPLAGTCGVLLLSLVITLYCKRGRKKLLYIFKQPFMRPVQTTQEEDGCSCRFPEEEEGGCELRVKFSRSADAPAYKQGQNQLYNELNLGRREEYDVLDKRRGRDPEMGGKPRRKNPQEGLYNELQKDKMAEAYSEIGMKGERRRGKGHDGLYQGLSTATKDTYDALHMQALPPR

B1: GP5B318 (antibody, mouse IgG2a, kappa, V domains shown)
VH: EVQLVQSGAEVKKPGESLKISCKGSGYSFTSYWIGWVRQMPGKGLEWMGIIYPGDSDTRYSPSFQGQVTISADKSISTAYLQWSSLKASDTAMYYCARGWDYGTGEFDYWGQGTLVTVSS
VL: EIVLTQSPGTLSLSPGERATLSCRASQSIGNWLNWYQQKPGKAPKLLIYYASSLQSGVPSRFSGSGSGTDFTLTISSLQPEDFAVYYCQQSLSFPITFGQGTKVEIKR
notes: made in HEK293 Expi or CHO; also called anti-idiotypic antibody GP5B318; chimeric mAb with human VH/VL and murine IgG2a/k
By Kd is commonly meant the free concentration of one partner at which half of the binding sites on the other are occupied at equilibrium, for simple one-to-one binding. A low value points to tighter binding. As a reminder, the koff is the first-order rate constant of dissociation. The low end stands for slow dissociation, the high end for fast dissociation. What is called kon is the rate constant with which the complex forms. High values mean faster complex formation, low ones slower complex formation. One may read the EC50 as the concentration that produces a half-maximal response. A high value points to a less potent agent. Consider B1, for which, in the experiment with GP5B305, the Kd was less than 2.9 pM, the koff was less than 2.9e-05 s⁻¹ and the kon is greater than 1e+07 M⁻¹ s⁻¹. Also, it took 0.03 µg/mL to reach a half-maximal effect in experiment [1] (EC50).

B2: PE-GP5B318 (antibody, mouse IgG2a, kappa, V domains shown)
VH: EVQLVQSGAEVKKPGESLKISCKGSGYSFTSYWIGWVRQMPGKGLEWMGIIYPGDSDTRYSPSFQGQVTISADKSISTAYLQWSSLKASDTAMYYCARGWDYGTGEFDYWGQGTLVTVSS
VL: EIVLTQSPGTLSLSPGERATLSCRASQSIGNWLNWYQQKPGKAPKLLIYYASSLQSGVPSRFSGSGSGTDFTLTISSLQPEDFAVYYCQQSLSFPITFGQGTKVEIKR
modifications: antibody conjugated to R-phycoerythrin, purified to a 1:1 PE:antibody ratio; site not stated
notes: GP5B318 labelled with phycoerythrin (Expedeon kit); also called PE-P5B318; GP5B318 conjugated to R-PE
In turn, B2 displayed an EC50 in experiment [2] of 0.1 µg/mL.
